The series has as its system Escherichia coli TOP10. The series can be described thus: shrunken log2 fold change of peptide-encoding DNA abundance (4.5 h post-induction vs induction); higher = less antimicrobial activity (less host growth inhibition). As to conditions: time post-induction: 4.5 h; library: site-saturation at positions 5, 18, 19, 20.
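Also: peptides expressed intracellularly from a pBAD plasmid library in pooled LB shake-flask culture, induced with 0.3% L-arabinose, DNA abundance read by NGS, three biological replicates, DESeq2 with apeglm shrinkage.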

As for RRIRCRPPRLPRPRPRPHYAPRP, the “shrunken log2 fold change” value is -0.299.

Consider RRIRGRPPRLPRPRPRPLFQPRP, for which the “shrunken log2 fold change” value amounted to 0.266.

As for RRIRPRPPRLPRPRPRPNWKPRP, the “shrunken log2 fold change” value was -0.101.

For RRIRKRPPRLPRPRPRPTWDPRP, the “shrunken log2 fold change” value was found to be 0.289.

Regarding RRIRERPPRLPRPRPRPRHMPRP, the “shrunken log2 fold change” value was -0.0855.

As to RRIRIRPPRLPRPRPRPGTFPRP, the “shrunken log2 fold change” value was -0.0863.

As to RRIRFRPPRLPRPRPRPTVCPRP, the “shrunken log2 fold change” value is -0.0464.

For the sequence RRIRHRPPRLPRPRPRPRHLPRP, the “shrunken log2 fold change” value worked out at 0.184.

As to RRIRTRPPRLPRPRPRPFCFPRP, the “shrunken log2 fold change” value was -0.134.

In the case of RRIRSRPPRLPRPRPRPASKPRP, the “shrunken log2 fold change” value worked out at 0.019.

For the sequence RRIRQRPPRLPRPRPRPVWHPRP, the “shrunken log2 fold change” value was found to be 0.0663.

RRIRQRPPRLPRPRPRPICGPRP: the “shrunken log2 fold change” value was -0.0167.

In the case of RRIRDRPPRLPRPRPRPATEPRP, the “shrunken log2 fold change” value amounted to 0.646.

Take RRIRQRPPRLPRPRPRPTICPRP: the “shrunken log2 fold change” value was -0.114.

Take RRIRWRPPRLPRPRPRPQPRPRP: the “shrunken log2 fold change” value stood at 0.462.

Regarding RRIRLRPPRLPRPRPRPWAWPRP, the “shrunken log2 fold change” value is -0.0255.

For the sequence RRIRDRPPRLPRPRPRPPGYPRP, the “shrunken log2 fold change” value was determined as 0.0954.

For the sequence RRIRGRPPRLPRPRPRPDLWPRP, the “shrunken log2 fold change” value was 1.79.

For RRIRFRPPRLPRPRPRPYDKPRP, the “shrunken log2 fold change” value was -0.374.

As to RRIRRRPPRLPRPRPRPFLIPRP, the “shrunken log2 fold change” value is 1.61.

Turning to RRIRCRPPRLPRPRPRPIVFPRP, the “shrunken log2 fold change” value was -0.31.

Consider RRIRSRPPRLPRPRPRPVDLPRP, for which the “shrunken log2 fold change” value is -0.199.

RRIRMRPPRLPRPRPRPTQAPRP: the “shrunken log2 fold change” value came to 0.0839.

On to RRIRDRPPRLPRPRPRPNEQPRP, for which the “shrunken log2 fold change” value was -0.0164.

For the sequence RRIRSRPPRLPRPRPRPCIQPRP, the “shrunken log2 fold change” value is -0.175.

With RRIRFRPPRLPRPRPRPKNFPRP, the “shrunken log2 fold change” value was 0.0482.

Regarding RRIRVRPPRLPRPRPRPIREPRP, the “shrunken log2 fold change” value was -0.152.

For RRIRERPPRLPRPRPRPVKCPRP, the “shrunken log2 fold change” value is -0.069.

On to RRIRPRPPRLPRPRPRPGGGPRP, for which the “shrunken log2 fold change” value amounted to 0.728.

Take RRIRPRPPRLPRPRPRPPTTPRP: the “shrunken log2 fold change” value worked out at 0.327.

For RRIRLRPPRLPRPRPRPGMTPRP, the “shrunken log2 fold change” value was found to be 0.00528.

In the case of RRIRGRPPRLPRPRPRPKWWPRP, the “shrunken log2 fold change” value was 1.13.

Take RRIRARPPRLPRPRPRPAPPPRP: the “shrunken log2 fold change” value was determined as 1.27.

As for RRIRWRPPRLPRPRPRPMSKPRP, the “shrunken log2 fold change” value is -0.133.

Take RRIRNRPPRLPRPRPRPWTNPRP: the “shrunken log2 fold change” value was -0.492.

Turning to RRIRMRPPRLPRPRPRPPDYPRP, the “shrunken log2 fold change” value is 0.345.

RRIRGRPPRLPRPRPRPEFRPRP: the “shrunken log2 fold change” value stood at 0.634.

For the sequence RRIRSRPPRLPRPRPRPDWPPRP, the “shrunken log2 fold change” value was 0.149.

For the sequence RRIRVRPPRLPRPRPRPKIVPRP, the “shrunken log2 fold change” value was determined as 0.2.

Turning to RRIRIRPPRLPRPRPRPEFAPRP, the “shrunken log2 fold change” value was determined as 0.452.

Consider RRIRIRPPRLPRPRPRPWYEPRP, for which the “shrunken log2 fold change” value is -0.0153.

Consider RRIRGRPPRLPRPRPRPYSIPRP, for which the “shrunken log2 fold change” value is 0.273.

As for RRIRARPPRLPRPRPRPTASPRP, the “shrunken log2 fold change” value turned out to be 0.74.

In the case of RRIRTRPPRLPRPRPRPAHGPRP, the “shrunken log2 fold change” value was 0.00693.

For RRIRHRPPRLPRPRPRPEDKPRP, the “shrunken log2 fold change” value is -0.0488.

For RRIRMRPPRLPRPRPRPREMPRP, the “shrunken log2 fold change” value is 0.657.

On to RRIRYRPPRLPRPRPRPKVYPRP, for which the “shrunken log2 fold change” value was -1.13.

RRIRKRPPRLPRPRPRPTVAPRP: the “shrunken log2 fold change” value was found to be 0.814.

For the sequence RRIRVRPPRLPRPRPRPGWLPRP, the “shrunken log2 fold change” value turned out to be 0.543.

Consider RRIRNRPPRLPRPRPRPKDCPRP, for which the “shrunken log2 fold change” value was -0.0418.

Take RRIRDRPPRLPRPRPRPNPYPRP: the “shrunken log2 fold change” value is -0.558.

Consider RRIRYRPPRLPRPRPRPAQTPRP, for which the “shrunken log2 fold change” value is 0.0654.

Take RRIRTRPPRLPRPRPRPFQFPRP: the “shrunken log2 fold change” value was -0.131.

With RRIRVRPPRLPRPRPRPWAPPRP, the “shrunken log2 fold change” value is 0.0631.

RRIRKRPPRLPRPRPRPFDGPRP: the “shrunken log2 fold change” value was found to be 0.23.

On to RRIRIRPPRLPRPRPRPLMKPRP, for which the “shrunken log2 fold change” value was -0.232.

RRIRSRPPRLPRPRPRPDNQPRP: the “shrunken log2 fold change” value was -0.568.

For the sequence RRIRFRPPRLPRPRPRPQKQPRP, the “shrunken log2 fold change” value was -0.199.

Consider RRIRYRPPRLPRPRPRPMSQPRP, for which the “shrunken log2 fold change” value is -0.0802.

On to RRIRIRPPRLPRPRPRPCIQPRP, for which the “shrunken log2 fold change” value is -0.185.

As to RRIRDRPPRLPRPRPRPAMYPRP, the “shrunken log2 fold change” value is -0.0257.

Regarding RRIRERPPRLPRPRPRPQSCPRP, the “shrunken log2 fold change” value came to 0.00299.

The values above are taken from the supplement of paper PMC9112550, “Optimization of the antimicrobial peptide Bac7 by deep mutational scanning” (BMC Biology, 2022).
